Reference: patent publication US7696168 (TUFTS MEDICAL CENTER, dated 2010)
The star is where a group is joined. Palmitoyl = CCCCCCCCCCCCCCCC(=O)*

Legend:
Experiment in all cases: cell-based or functional assay
[1] = target: human glucagon-like peptide-1 receptor (GLP-1R) (human, UniProt P43220 24-463)
[2] = target: T1, human cholecystokinin B receptor (CCKB) (human, UniProt P32239 1-447)
T1 sequence (looked up): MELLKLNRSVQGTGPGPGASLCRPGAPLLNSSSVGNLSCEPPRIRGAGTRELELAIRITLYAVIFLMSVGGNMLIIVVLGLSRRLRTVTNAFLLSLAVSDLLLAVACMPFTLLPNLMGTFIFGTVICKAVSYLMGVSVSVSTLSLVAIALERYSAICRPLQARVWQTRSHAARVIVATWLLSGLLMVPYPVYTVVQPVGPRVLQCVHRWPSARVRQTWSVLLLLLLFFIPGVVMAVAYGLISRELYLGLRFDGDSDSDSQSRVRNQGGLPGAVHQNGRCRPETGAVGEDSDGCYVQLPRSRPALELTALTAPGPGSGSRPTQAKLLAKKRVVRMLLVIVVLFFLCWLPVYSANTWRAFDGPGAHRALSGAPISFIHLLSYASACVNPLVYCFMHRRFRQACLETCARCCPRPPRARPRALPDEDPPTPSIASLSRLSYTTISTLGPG

[3] = target: T1, human cholecystokinin B receptor (CCKB); remark: listed apart in the source
[4] = target: T2, human PAR2 (human, UniProt P55085 37-397)
T2 sequence (looked up): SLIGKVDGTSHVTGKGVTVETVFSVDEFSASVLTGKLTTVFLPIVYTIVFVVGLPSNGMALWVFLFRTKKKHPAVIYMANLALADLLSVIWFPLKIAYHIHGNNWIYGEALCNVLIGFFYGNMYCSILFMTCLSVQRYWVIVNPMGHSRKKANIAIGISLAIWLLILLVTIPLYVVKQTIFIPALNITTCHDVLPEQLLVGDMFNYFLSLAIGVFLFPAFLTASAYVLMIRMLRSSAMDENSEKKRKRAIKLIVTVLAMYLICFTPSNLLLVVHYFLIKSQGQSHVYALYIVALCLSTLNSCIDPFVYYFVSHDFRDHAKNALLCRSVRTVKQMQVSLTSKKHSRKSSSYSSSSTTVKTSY

B1: G1pal-15 pepducin (peptide)
peptide: Palmitoyl-ANLMSKTDIKCRLAF-NH2
SMILES: CCCCCCCCCCCCCCCC(=O)N[C@@H](C)C(=O)N[C@@H](CC(N)=O)C(=O)N[C@@H](CC(C)C)C(=O)N[C@@H](CCSC)C(=O)N[C@@H](CO)C(=O)N[C@@H](CCCCN)C(=O)N[C@H](C(=O)N[C@@H](CC(=O)O)C(=O)N[C@H](C(=O)N[C@@H](CCCCN)C(=O)N[C@@H](CS)C(=O)N[C@@H](CCCNC(=N)N)C(=O)N[C@@H](CC(C)C)C(=O)N[C@@H](C)C(=O)N[C@@H](Cc1ccccc1)C(N)=O)[C@@H](C)CC)[C@@H](C)O
cAMP in Cos7 fibroblasts, fold activation at 1 µM pepducin [1]: 1.7 fold

B2: Bpal-18F (Pal-SGSRPTQAKLLAKKRVVF) (peptide)
peptide: Palmitoyl-SGSRPTQAKLLAKKRVVF-NH2
SMILES: CCCCCCCCCCCCCCCC(=O)N[C@@H](CO)C(=O)NCC(=O)N[C@@H](CO)C(=O)N[C@@H](CCCNC(=N)N)C(=O)N1CCC[C@H]1C(=O)N[C@H](C(=O)N[C@@H](CCC(N)=O)C(=O)N[C@@H](C)C(=O)N[C@@H](CCCCN)C(=O)N[C@@H](CC(C)C)C(=O)N[C@@H](CC(C)C)C(=O)N[C@@H](C)C(=O)N[C@@H](CCCCN)C(=O)N[C@@H](CCCCN)C(=O)N[C@@H](CCCNC(=N)N)C(=O)N[C@H](C(=O)N[C@H](C(=O)N[C@@H](Cc1ccccc1)C(N)=O)C(C)C)C(C)C)[C@@H](C)O
Agonist EC50 (activating phase, InsP formation) [2]: 100 nM | Agonist Efficacy (% of full response to 300 nM CCK-8) [2]: 13% | Agonist IC50 (inhibitory phase, InsP formation) [2]: 1000 nM | improvement of potency against the wild-type CCKB peptide [3]: 15 fold

SLIGKV
InsP formation, fold-stimulation by 100 micromolar SLIGKV (P2pal-21 experiment) [4]: 3.1 fold
